Results taken from the RNAGym collection of RNA variant scans (doi:10.1073/pnas.2313332121).

B1: TPR t1 (parent)
chain: GACCAAUCUGCCCUCAGAGCUCGAGAACAUCUUCGGAUGCAGAGGAGGCAGGCUUCGGUGGCGCGAUAGCGCCAACGUCCUCAACCUCCAAUGCAUCCCACCACAUGAUGAUGCCUGAAGAGCCUUGGUUUUUUG

Variants of: B1
Assay: polymerase ribozyme fitness, log enrichment relative to wild type (log ratio); higher = more active; in vitro selection for triplet polymerase activity
In short: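 Genotype fitness is the logarithm of its enrichment divided by wild-type enrichment, using inverse-variance-weighted averages of replicates. That logarithm is base 2. Enrichment was measured by Illumina sequencing of input and output libraries from one triplicate in vitro selection round, with frozen incubation at −7 °C, on PCR-built, transcribed mutant libraries of each subunit of a heterodimeric triplet polymerase ribozyme, retaining genotypes with ≥10 input reads and ≥1 read per output.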

In order of rising “polymerase ribozyme fitness (log ratio)” value:
1. GACCAAUCUGCCCUCAGAGCUCGAGAACAUCUUCGGAUGCAGAGGAGGCAGGGUUCGGUGGCGCGAUAGCGCCAACGUCCUCAACCGCCAAUGCAUCCGAUCACAUUAUGAUACCUGAAGAGCCUUGGUUUUUUG [C53G U87G C99G C101U G107U G113A]  -7.29
2. GACCAAUCUGCCCUCAGAGCUCGAGAACAUCUUCGGAUGCAGAGGAGGCAGGUUUCGGUGGCGCGAUAGCGCCAACGUCCUCAACCUCCAAUGCAUCCCACCACAUGUUGAUGCCUGAAGAGCCUUGGUUUUUUG [C53U A108U]  -6.86
3. GACCAAUCUGCCCUCAGAGCUCGAGAACAUCUUCGGAUGCAGAGGAGGCAGGGGUCGGUGGCCCGAUAGCGCCAACGUCCUCAACCUCCAAUGCAUCCCACCACAUGAUGAUGCCUGAAGAGCCUUGGUUUUUUG [C53G U54G G63C]  -3.77
4. GACCAAUCUGCCCUCAGAGCUCGAGAACAUCUUCGGAUGCAGAGGAGGCAGGUUUCGGUGGUGCGAUAGCGCCAACGUCCUCAACCUCCAAUGCAUCCCACCACAUGAUGAUGCCUGAAGAGCCAUGAUAUUUUG [C53U C62U U125A G128A U130A]  -3.39
5. GACCAAUCUGCCCUCAGAGCUCGAGAACAUCUUCGGAUGCAGAGGAGGCAGGUUUCGGUGGCGCGAUGGCGCCAACGUCCUCAACCUCCAAUGCAUCCCACCACAUGAUGAUGCCUGAAGAGCCUUGGUUUUUUG [C53U A68G]  -2.76
6. GACCAAUCUGCCCUCAGAGCUCGAGAACAUCUUCGGAUGCAGAGGAGGCAGGGUUCGGUGGCGCGAUAGCGCCAACGCCCACAACCUCCAAUGCAUCCCAACACAUGAUGAUGCCUGAACCGCCUUGGUUUUUUG [C53G U78C U81A C101A G120C A121C]  -2.66
7. GACCAAUCUGCCCUCAGAGCUCGAGAACAUCUUCGGAUGCAGAGGAGGCAGGUUUCGGUGGGGUGAUAGCGCCAACGUCCUCAACCUCCAAUGCAUCCCACCACAUGAUGAUGCAUGAAGAGCCUUGGUUUUUUG [C53U C62G C64U C115A]  -2.42
8. GACCAAUCUGCCCUCAGAGCUCGAGAACAUCUUCGGAUGCAGAGGAGGCAGGGUUCGGUGGCGCGAUAGCGCCAACGUCCUCAACCUCCAAUGCAUCCCACCACAUGAUGAUUCCUGAAGAGCCUUGGUUUUUUG [C53G G113U]  -2.22
9. GACCAAUCUGCCCUCAGAGCUCGAGAACAUCUUCGGAUGCAGAGGAGGCAGGUUUCGGUGGAGCGAUAGCGCCAACGUCCUCAACCUCCAAUCCAUCCCACCAUAUGAUGAUGCCUGAAGAGCCUUGGUUUUUUG [C53U C62A G93C C104U]  -1.76
10. GACCAAUCUGCCCUCAGAGCUCGAGAACAUCUUCGGAUGCAGAGGAGGCAGGGUUCGGUGGCGCGAUAGCGCCAACGUCCUCAACCUCCAAUGCAUCCCACCACAUGAUGAUGCCUAAAGAGCCUUGGUUUUUUG [C53G G117A]  -1.45
11. GACCAAUCUGCCCUCAGAGCUCGAGAACAUCUUCGGAUGCAGAGGAGGCAGGGUUCGGUGGCGCGAUAGCGCCAACGUCCUCAACCUCCAACGCAUCCCACCACAUGAUGAUGCCUGAAGAGCCUUGGUUUUUUG [C53G U92C]  -1.3
12. GACCAAUCUGCCCUCAGAGCUCGAGAACAUCUUCGGAUGCAGAGGAGGCAGGGUUCGGUGGCGCGAUAGCGCCAACUUCCUCAACAUCCAAUGCAUCCCACCACAUGAUGAUGCCUGAAGAGCCUUGGUUUUUUG [C53G G77U C86A]  -1.02
13. GACCAAUCUGCCCUCAGAGCUCGAGAACAUCUUCGGAUGCAGAGGAGGCAGGUUUGGGUGGCGCGAUAGCGCCAAGGUCCUCAACCUCCAAUGCAUCCCACCACAUGAUGAUGCCUGAAGAGCCAUGGUUUUUUG [C53U C56G C76G U125A]  -0.978
14. GACCAAUCUGCCCUCAGAGCUCGAGAACAUCUUCGGAUGCAGAGGAGGCAGGUUUCGGUGGCGCGAUAGCGCCAACGUCCUCAACCUCCACUGCAUCCCACCACAUGAUGAUGCCUGAACAGCCUUGGUUUUCUU [C53U A91C G120C U133C G135U]  -0.968
15. GACCAAUCUGCCCUCAGAGCUCGAGAACAUCUUCGGAUGCAGAGGAGGCAGGGUUCGGUGGCGCGAUAGCCCCAACGUCCUCAACCUCCAAUGCAUCCCACCACAUGAUGAUGCCUGAAGAGCCUUGGUUUUUUG [C53G G71C]  -0.515
16. GACCAAUCUGCCCUCAGAGCUCGAGAACAUCUUCGGAUGCAGAGGAGGCAGGUUUCGGUGGCGCGAUAGCGCCAACGUCCUCAACCUCCAAUGCAUCCCACCACAUGAUGAUGCCUGUACAGCCUUGGUUUUGUG [C53U A118U G120C U133G]  0.183
17. GACCAAUCUGCCCUCAGAGCUCGAGAACAUCUUCGGAUGCAGAGGAGGCAGGGUUCGGUGGCGCGAUAGCGCCAACGUCCUCAACCUCCAAUGCAUCCCACCACAUGAUGAUGCCUGAACAGCCCUGGUUUUUUG [C53G G120C U125C]  0.247
18. GACCAAUCUGCCCUCAGAGCUCGAGAACAUCUUCGGAUGCAGAGGAGGCAGGUUUCGGUGGCGCGAUAGCGCCAACGUCCUCAACCUCCAAUGCCUCCCACCACAUGAUGAUGCAUGAAGAGCCUUGGUUUUUUG [C53U A95C C115A]  0.802
19. GACCAAUCUGCCCUCAGAGCUCGAGAACAUCUUCGGAUGCAGAGGAGGCAGGGUUCGGUGGCGCGAUAGCGCCAACGUCCUCAACCUCCAAUGCAUCCCACCACAUGAUGACGCCUGAAGAGCCUUGGUUUUUUG [C53G U112C]  0.934
20. GACCAAUCUGCCCUCAGAGCUCGAGAACAUCUUCGGAUGCAGAGGAGGCAGGUUUCGGUGGCGCGAUAGCGCCAACGUCCUCAACCUCCAAUGCAUCCCACCACAUGAUGAUGCCUGAAGGGCCUUGGUUUUUUG [C53U A121G]  1.95
21. GACCAAUCUGCCCUCAGAGCUCGAGAACAUCUUCGGAUGCAGAGGAGGCAGGUUUCGGUGGCGCGAUAGCGCCAACGUCCUCAACCUCCAAUGCAUCCCACCACAUGAUGAUGCCUGAAGCGCCUUGGUUUUUUG [C53U A121C]  2.13
